{"source": "paper PMC9131899", "about": "(Blood Advances, 2022)", "target": "T1, high molecular weight kininogen (HK), purified protein used in ELISA (human, UniProt P01042 19-644)", "T1 sequence (looked up)": "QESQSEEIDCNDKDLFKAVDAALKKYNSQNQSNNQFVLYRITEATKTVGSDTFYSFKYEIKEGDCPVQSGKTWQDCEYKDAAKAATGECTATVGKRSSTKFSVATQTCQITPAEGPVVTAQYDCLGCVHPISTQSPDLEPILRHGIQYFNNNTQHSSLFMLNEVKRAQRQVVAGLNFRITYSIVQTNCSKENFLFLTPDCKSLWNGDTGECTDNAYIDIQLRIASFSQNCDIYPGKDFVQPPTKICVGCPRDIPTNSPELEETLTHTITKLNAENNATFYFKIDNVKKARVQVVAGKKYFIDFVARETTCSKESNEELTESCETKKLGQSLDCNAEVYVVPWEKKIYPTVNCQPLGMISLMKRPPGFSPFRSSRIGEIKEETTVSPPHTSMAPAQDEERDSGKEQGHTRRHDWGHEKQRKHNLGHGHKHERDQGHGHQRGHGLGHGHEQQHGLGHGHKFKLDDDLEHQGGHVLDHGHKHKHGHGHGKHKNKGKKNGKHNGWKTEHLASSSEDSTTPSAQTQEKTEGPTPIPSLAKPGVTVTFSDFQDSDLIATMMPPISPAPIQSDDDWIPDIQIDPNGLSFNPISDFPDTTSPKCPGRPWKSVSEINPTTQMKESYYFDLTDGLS", "assay": "ELISA"}
{"binder": "prekallikrein (PK), purified protein used in ELISA (natural protein) not shown", "values": [{"measurement": "binding result", "value": "binds"}]}
